Patent publication US20230348568A1 (US Dept. of Health and Human Services, published 2023)

Experiments:
[1] = target: Epstein-Barr virus glycoprotein 42 (gp42) (Epstein-Barr virus) (UniProt P03205); test: cell-based or functional assay
[2] = target: EBV gH/gL/gp42 heterotrimer (recombinant protein) (Epstein-Barr virus) (UniProt P03231); test: BLI cross-competition; gH/gL/gp42 on the biosensor pre-saturated with primary mAb A10, then binding of this secondary mAb measured; high value = secondary blocked
[3] = target: EBV gH/gL/gp42 heterotrimer (recombinant protein) (Epstein-Barr virus) (UniProt P03231); test: BLI cross-competition; gH/gL/gp42 on the biosensor pre-saturated with primary mAb 4C12, then binding of this secondary mAb measured; high value = secondary blocked
[4] = target: EBV gH/gL/gp42 heterotrimer (recombinant protein) (Epstein-Barr virus) (UniProt P03231); test: BLI cross-competition; gH/gL/gp42 on the biosensor pre-saturated with primary mAb F2-1, then binding of this secondary mAb measured (self pair); high value = secondary blocked
[5] = target: T1, Epstein-Barr virus glycoprotein 42 (gp42) (Epstein-Barr virus, UniProt P03205 34-223, limits assumed); test: cell-based or functional assay
T1 sequence: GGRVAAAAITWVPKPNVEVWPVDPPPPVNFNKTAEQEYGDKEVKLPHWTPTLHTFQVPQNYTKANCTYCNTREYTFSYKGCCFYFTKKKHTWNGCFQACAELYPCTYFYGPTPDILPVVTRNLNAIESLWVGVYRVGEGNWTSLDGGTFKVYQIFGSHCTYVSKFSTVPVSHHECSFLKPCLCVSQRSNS

[6] = target: T1, Epstein-Barr virus glycoprotein 42 …; test: cell-based or functional assay; remark: listed apart in the source
[7] = target: T1, Epstein-Barr virus glycoprotein 42 …; test: cell-based or functional assay; remark: listed apart in the source
[8] = target: T2, EBV gH/gL/gp42 heterotrimer (recombinant protein) (Epstein-Barr virus, UniProt P03231 19-679; P03212 23-137); test: BLI (Octet RED96e), biotinylated gH/gL/gp42 on streptavidin biosensors, Fab dilution series, 1:1 global fit
T2 construct: Recombinant complex; also called gH/gL/gh42

[9] = target: T2, EBV gH/gL/gp42 heterotrimer …; test: BLI, gH/gL/gp42 on the biosensor, dilution series of Fab (legend box shows 5.00E-07), 300 s association, dissociation to 1200 s

In the case of “F2-1 monoclonal antibody (previously described murine anti-gp42 antibody)”, the IC50 titer to block glycoprotein-mediated B cell fusion [1] is reported as 111 µg/mL, the IC50 titer to neutralize EBV infection in B cells [1] is reported as 0.584 µg/mL and the cross-competition (name or unit not given) [2] is reported as 100. It also gave a cross-competition (name or unit not given) [3] of 8.9 and a cross-competition (name or unit not given) [4] of 95.4.

B1: A10 monoclonal antibody (cynomolgus monkey variable regions on human IgG1 constant region) (antibody, V domains shown)
VH: QVQLQESGPGLVKPSQTLSLTCAISGDSVSSNSATWNWIRQSPSRGLEWLGRTYYRSKWYYDYAQSVQNRISINPDTSKNQFSLQLNSVTPEDMAVYYCARGDFDAFDFWGQGLRVTVSS
VL: SYELTQPPSVSAASGQTARITCGGDNIGSKNVQWYQQKPAQAPVLVIYADSKRPSGVPERFSGSNSGNTATLTISGVEAGDEADYYCQVWDRSSNIFGVGTRLTVLG
For B1, the “effectiveness in blocking B cell fusion relative to F2-1” value [5] was about 50 fold, the “neutralization potency relative to F2-1” value [5] was about 14 fold and the “IC50 titer to neutralize EBV infection in B cells” value [6] was 0.0391 µg/mL. The “IC50 titer to block glycoprotein-mediated B cell fusion” value [7] was 2.41 µg/mL.

B2: A10 Fab (Fab, V domains shown)
VH: QVQLQESGPGLVKPSQTLSLTCAISGDSVSSNSATWNWIRQSPSRGLEWLGRTYYRSKWYYDYAQSVQNRISINPDTSKNQFSLQLNSVTPEDMAVYYCARGDFDAFDFWGQGLRVTVSS
VL: SYELTQPPSVSAASGQTARITCGGDNIGSKNVQWYQQKPAQAPVLVIYADSKRPSGVPERFSGSNSGNTATLTISGVEAGDEADYYCQVWDRSSNIFGVGTRLTVLG
notes: Fab of A10
With B2 the “IC50 titer to block glycoprotein-mediated B cell fusion” value [7] was 1.73 µg/mL, the Kd [8] was 0.149 nM and the koff [8] was 0.000227 s⁻¹. It also gave a kon [8] of 1.54e+06 M⁻¹ s⁻¹.

B3: 4C12 Fab (Fab, V domains shown)
VH: EVQLQQSGPELVKPGASVKISCKASGYTFTDYNMHWVKQSHGKNLEWIGFIYLYNGGTGYNQNFKSKATLTVDNSSSTAYMELRSLTSEDSAVFYCARDYYGNPYAMDYWGQGTSVTVSS
VL: DIQMTQTTSSLSASLGDRVTISCRASQDISNYLNWYQQKPDGTVKLLIYYTSRLRSGVPSRFSGSGSGTDYSLTINNLEQEDIATYFCQQGNTLPFTFGSGTKLEIK
notes: Fab of mAb 4C12; how the Fab was made is not described
Work on B3 yielded a Kd [9] of 57.9 nM.
